Assay results: article PMC10659578, “Mechanism of stepwise electron transfer in six-transmembrane epithelial antigen of the prostate (STEAP) 1 and 2” (eLife, 2023)

Test system: T1, Cc1cc2c(cc1C)N(C[C@H](O)[C@H](O)[C@H](O)COP(=O)(O)OP(=O)(O)OC[C@H]1O[C@@H](n3cnc4c(N)ncnc43)[C@H](O)[C@@H]1O)c1[nH]c(=O)[nH]c(=O)c1N2
T1 construct: full-length, expressed and purified as in Kim et al. 2016; detergent-solubilised
Experiment: rapid-scan stopped-flow heme reduction (A427), kobs vs [FADH-]
Type: biochemical, Oryctolagus cuniculus
Details: fast phase, single-turnover heme reduction, anaerobic, 20 mM HEPES pH 7.5, 150 mM NaCl, 0.1% LMNG

Chain of STEAP1 (Oryctolagus cuniculus; L230G) (chain, as listed by the source L230G): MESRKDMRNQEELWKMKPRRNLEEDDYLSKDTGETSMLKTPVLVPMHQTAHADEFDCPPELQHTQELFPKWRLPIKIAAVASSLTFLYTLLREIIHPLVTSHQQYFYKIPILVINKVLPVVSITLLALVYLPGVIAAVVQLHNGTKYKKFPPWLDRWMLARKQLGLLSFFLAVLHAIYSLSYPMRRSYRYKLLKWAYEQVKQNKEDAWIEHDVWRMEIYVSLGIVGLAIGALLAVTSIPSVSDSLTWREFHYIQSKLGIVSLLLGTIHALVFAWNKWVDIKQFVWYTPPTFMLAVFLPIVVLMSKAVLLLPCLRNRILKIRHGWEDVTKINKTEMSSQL

Substance	Km (79% of change)	Km (60% of change)
STEAP1 (Oryctolagus cuniculus; L230G)	3.6 µM	
STEAP1 (Oryctolagus cuniculus)		4.7 µM
